Laboratory results from US20210253718A1, “FRIZZLED5 PROTEIN-BINDING AGENTS” (Modmab Therapeutics Corporation, priority 2016, published 2021).
Substitutions are numbered along the chain they refer to.

B1: Fab-2905: anti-FZD5 Fab with antibody variable region Fv-2905; CDR SEQ ID NOs: 35, 36, 44, 83, 120, 157 (antibody, V domains shown)
VH: EVQLVESGGGLVQPGGSLRLSCAASGFNLSYYYMHWVRQAPGKGLEWVASIYSSYSYTSYADSVKGRFTISADTSKNTAYLQMNSLRAEDTAVYYCARSGYALDYWGQGTLVTVSS
VL: DIQMTQSPSSLSASVGDRVTITCRASQSVSSAVAWYQQKPGKAPKLLIYSASSLYSGVPSRFSGSRSGTDFTLTISSLQPEDFATYYCQQSSWYYGYPFTFGQGTKVEIK
B2: Fab-2923: anti-FZD5 Fab with antibody variable region Fv-2923; CDR SEQ ID NOs: 35, 36, 62, 100, 138, 162 (antibody, V domains shown)
VH: EVQLVESGGGLVQPGGSLRLSCAASGFNLYYYYMHWVRQAPGKGLEWVASIYSSSGSTSYADSVKGRFTISADTSKNTAYLQMNSLRAEDTAVYYCARGAMDYWGQGTLVTVSS
VL: DIQMTQSPSSLSASVGDRVTITCRASQSVSSAVAWYQQKPGKAPKLLIYSASSLYSGVPSRFSGSRSGTDFTLTISSLQPEDFATYYCQQWYGYSALITFGQGTKVEIK
B3: Fab-2926: anti-FZD5 Fab with antibody variable region Fv-2926; CDR SEQ ID NOs: 35, 36, 65, 103, 141, 173 (antibody, V domains shown)
VH: B2 VH with L29I, Y31S, Y32S, S53P, G56S, A100G, M101L
VL: B2 VL with G93H, Y94G, S95G, A96S, I98F
B4: Fab-2925: anti-FZD5 Fab with antibody variable region Fv-2925; CDR SEQ ID NOs: 35, 36, 64, 102, 140, 172 (antibody, V domains shown)
VH: EVQLVESGGGLVQPGGSLRLSCAASGFNLSYSSMHWVRQAPGKGLEWVASIYPSYGSTYYADSVKGRFTISADTSKNTAYLQMNSLRAEDTAVYYCARYGYFGLDYWGQGTLVTVSS
VL: B2 VL with W91A, Y92W, G93V, S95A, A96S, I98F
B5: Fab-2901: anti-FZD5 Fab with antibody variable region Fv-2901; CDR SEQ ID NOs: 35, 36, 40, 79, 116, 154 (antibody, V domains shown)
VH: EVQLVESGGGLVQPGGSLRLSCAASGFNISYSYMHWVRQAPGKGLEWVASIYSYSSYTYYADSVKGRFTISADTSKNTAYLQMNSLRAEDTAVYYCARSWYYWSPSSGMDYWGQGTLVTVSS
VL: DIQMTQSPSSLSASVGDRVTITCRASQSVSSAVAWYQQKPGKAPKLLIYSASSLYSGVPSRFSGSRSGTDFTLTISSLQPEDFATYYCQQGGFLITFGQGTKVEIK

Tests used:
[1] = target: T1, FZD5 CRD (Homo sapiens, UniProt Q13467); test: Immunofluorescence of anti-FZD5 Fab binding to CHO cells overexpressing Frizzled CRD; design: key: −: no binding; +: very weak binder; ++: weak binder; +++: good binder; ++++: very good binder
T1 construct: K29-T156; GPI anchor signal (C); expressed in transfected cells; host or cells: CHO cells, lentiviral pLenti-puro
T1 sequence (Q13467 29-156): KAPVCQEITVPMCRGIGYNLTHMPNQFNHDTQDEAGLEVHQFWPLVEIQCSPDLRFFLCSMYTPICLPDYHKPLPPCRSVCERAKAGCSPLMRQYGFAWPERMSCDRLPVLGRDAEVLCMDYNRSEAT
Protocol: (§1) Plasmids: pLCKO lentiviral vector used for knockout (TKO) library construction and expression of individual gRNAs was constructed as described previously (Hart et al., 2015). Briefly, single guide RNA (sgRNA) scaffold was amplified from px330 (Addgene 42230) and cloned into pLKO.TRC005 lentiviral vector (Broad Institute, Cambridge, Mass.) using AgeI/EcoRI restriction sites. BfuAI sites were added at the 5′ end of the sgRNA scaffold for cloning the TKO library or individual gRNA target sequences. Lenti Cas9-2A-BsdR vector used to generate Cas9 stable expression cell lines was constructed as described previously (Hart et al., 2015). Briefly, lentiCRISPR pXPR_001 (Addgene 49535) was modified through removal of the sgRNA scaffold region through NdeI/EcoRI digest and blunt ends generation using Large Klenow Fragment (NEB). 2A-puro was replaced with 2A-BsdR by PCR using the NheI/MluI sites. Each of the 10 human Frizzled cysteine rich domains (CRDs) were cloned into the lentiviral expression plasmid pLenti-puro in the following cassette: FZD_CRD-MYC-GPI.
(§2) To confirm that the FZD5-WNT7B circuit is not driven simply by expression and rule out the possibility of a disconnect between RNA and protein levels for the Wnt receptors in HPAF-II cells, a panel of recombinant Fabs were generated, alternatively referred to herein as ‘Frizzled profiler’, that can detect and discriminate all but one of the ten Frizzled receptors. […] To characterize the binding specificity of these Fabs on cells, a panel of 10 CHO cell lines was generated, each expressing the CRD domain of a different myc-tagged Frizzled family member anchored at the plasma membrane through a GPI anchor (CHO-myc-FZDGPI). Despite the high sequence identity between Frizzled family members (FIG. 7A, FIG. 7B), selective Fabs were identified for FZD4, FZD5, FZD6 and FZD10 as assessed by immunofluorescence and flow cytometry (FIG. 7D and FIG. 8). […] The FZD8 CRD is most homologous to that of FZD5 (FIG. 7B). These Fabs can be used to discriminate expression of FZD1, FZD2, FZD4, FZD5, FZD6, FZD7, FZD8, FZD9 and FZD10 (FIG. 7D and FIG. 8). The ‘Frizzled profiler’ therefore consists of 10 different Fabs that can be used to discriminate expression of 9 different Frizzled family members. The Frizzled profiler was then used to confirm that HPAF-II cells express FZD1, FZD5, FZD6 and possibly FZD8 (FIG. 7E).
(§3) The binding of anti-FZD5 Fabs to cell surface-expressed Frizzled protein was further determined for each member of the Frizzled family via flow cytometry and immunofluorescence analysis of a panel of 10 CHO cell lines, each ectopically over-expressing the extracellular cysteine-rich domain (CRD) of a different Frizzled protein family member.

[2] = target: T2, FZD2 CRD (Homo sapiens, UniProt Q14332); test: as above; design: key: −: no binding; +: very weak binder; ++: weak binder; +++: good binder; ++++: very good binder
T2 construct: D35-P161; GPI anchor signal (C); expressed in transfected cells; host or cells: CHO cells, lentiviral pLenti-puro
Protocol: as §1, §2, §3

[3] = target: T3, FZD4 CRD (Homo sapiens, UniProt Q9ULV1); test: as above; design: key: −: no binding; +: very weak binder; ++: weak binder; +++: good binder; ++++: very good binder
T3 construct: E42-V167; GPI anchor signal (C); expressed in transfected cells; host or cells: CHO cells, lentiviral pLenti-puro
T3 sequence (Q9ULV1 42-167): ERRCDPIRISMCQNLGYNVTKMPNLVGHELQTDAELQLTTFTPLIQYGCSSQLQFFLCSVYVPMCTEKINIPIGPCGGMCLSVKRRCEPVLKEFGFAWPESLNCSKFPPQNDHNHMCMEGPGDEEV
Protocol: as §1, §2, §3

[4] = target: T4, FZD9 CRD (Homo sapiens, UniProt O00144); test: as above; design: key: −: no binding; +: very weak binder; ++: weak binder; +++: good binder; ++++: very good binder
T4 construct: G35-A161; GPI anchor signal (C); expressed in transfected cells; host or cells: CHO cells, lentiviral pLenti-puro
T4 sequence (O00144 35-161): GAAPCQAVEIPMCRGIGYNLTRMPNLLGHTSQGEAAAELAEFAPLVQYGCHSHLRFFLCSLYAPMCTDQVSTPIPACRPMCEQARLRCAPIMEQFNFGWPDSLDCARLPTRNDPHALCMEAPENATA
Protocol: as §1, §2, §3

[5] = target: T5, FZD8 CRD (Homo sapiens, UniProt Q9H461); test: as above; design: key: −: no binding; +: very weak binder; ++: weak binder; +++: good binder; ++++: very good binder
T5 construct: K31-D155; GPI anchor signal (C); expressed in transfected cells; host or cells: CHO cells, lentiviral pLenti-puro
T5 sequence (Q9H461 31-155): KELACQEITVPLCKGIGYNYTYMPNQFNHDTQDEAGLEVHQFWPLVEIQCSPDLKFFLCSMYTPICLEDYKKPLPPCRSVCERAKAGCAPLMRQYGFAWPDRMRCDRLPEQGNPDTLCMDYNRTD
Protocol: as §1, §2, §3

[6] = target: T6, FZD3 CRD (Homo sapiens, UniProt Q9NPG1); test: as above; design: key: −: no binding; +: very weak binder; ++: weak binder; +++: good binder; ++++: very good binder
T6 construct: CRD of FZD1, FZD2, FZD3, FZD4, FZD5, FZD6, FZD7, FZD8, FZD9 or FZD10; GPI anchor signal (C); expressed in transfected cells; host or cells: CHO cells, lentiviral pLenti-puro
T6 sequence (Q9NPG1 23-136 limits assumed): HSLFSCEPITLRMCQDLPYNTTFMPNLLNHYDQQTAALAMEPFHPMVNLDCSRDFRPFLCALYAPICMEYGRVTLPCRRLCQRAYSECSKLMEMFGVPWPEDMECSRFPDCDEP
Protocol: as §1, §2, §3

[7] = test system: CHO cells not expressing Frizzled CRD; test: Flow cytometry of anti-FZD5 Fab binding to CHO cells not expressing Frizzled CRD (background)
Text: as §3

[8] = target: T7, FZD1 CRD (Homo sapiens, UniProt Q9UP38); test: Immunofluorescence of anti-FZD5 Fab binding to CHO cells overexpressing Frizzled CRD; design: key: −: no binding; +: very weak binder; ++: weak binder; +++: good binder; ++++: very good binder
T7 construct: D112-P238; GPI anchor signal (C); expressed in transfected cells; host or cells: CHO cells, lentiviral pLenti-puro
Protocol: as §1, §2, §3

Molecule | Immunofluorescence binding, Frizzled CRD overexpressed on CHO cells: FZD5 [1] | Immunofluorescence binding, Frizzled CRD overexpressed on CHO cells: FZD2 [2] | Immunofluorescence binding, Frizzled CRD overexpressed on CHO cells: FZD4 [3] | Immunofluorescence binding, Frizzled CRD overexpressed on CHO cells: FZD9 [4] | Immunofluorescence binding, Frizzled CRD overexpressed on CHO cells: FZD8 [5] | Immunofluorescence binding, Frizzled CRD overexpressed on CHO cells: FZD3 [6] | Median fluorescence, Frizzled CRD overexpressed on CHO cells: None [7] | Immunofluorescence binding, Frizzled CRD overexpressed on CHO cells: FZD1 [8]
B1 | + | − | − | − | − | − | 3.62 | 
B2 | ++++ | − | − | − | + | − |  | −
B3 | ++++ | − | − | − | + | − |  | −
B4 | ++++ |  | − | − | − | − | 3.55 | ++
B5 | ++++ | − | − | − | + | − | 3.75 | 
